{"source": "patent EP4803548A1", "about": "(Beijing Wisdomab Biotechnology Co., Ltd, dated 2026)", "key": {"[1]": {"target": "T1, HLA-A02/HBsAg348-357 (…) complex on the cell surface (human; human (Homo sapiens) as printed …)", "test": "cell-based or functional assay"}, "[2]": {"target": "T1, HLA-A02/HBsAg348-357 (…) complex on the …", "test": "cell-based or functional assay", "remark": "listed apart in the source"}, "[3]": {"target": "T1, HLA-A02/HBsAg348-357 (…) complex on the …", "test": "cell-based or functional assay", "remark": "listed apart in the source"}, "[4]": {"target": "T1, HLA-A02/HBsAg348-357 (…) complex on the …", "test": "cell-based or functional assay", "remark": "listed apart in the source"}, "[5]": {"target": "T2, HLA-A02 complex presenting … (MIP-H1-01), disulfide trap single-chain trimer", "test": "SPR Biacore T200; method of Section 3.1"}, "[6]": {"target": "T3, CD3D-CD3E-mFc (human; mouse)", "T3 construct": "also called antigen CD3D-CD3E-mFc", "T3 chain 1": "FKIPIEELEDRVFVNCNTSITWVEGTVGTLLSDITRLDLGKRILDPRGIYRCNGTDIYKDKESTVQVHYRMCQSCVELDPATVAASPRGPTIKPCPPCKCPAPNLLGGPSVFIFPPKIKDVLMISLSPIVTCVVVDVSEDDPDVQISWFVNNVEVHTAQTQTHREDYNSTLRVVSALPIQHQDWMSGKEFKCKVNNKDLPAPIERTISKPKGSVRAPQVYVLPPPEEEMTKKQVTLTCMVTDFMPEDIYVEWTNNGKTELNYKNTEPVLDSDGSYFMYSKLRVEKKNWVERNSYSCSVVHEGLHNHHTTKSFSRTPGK", "T3 chain 2": "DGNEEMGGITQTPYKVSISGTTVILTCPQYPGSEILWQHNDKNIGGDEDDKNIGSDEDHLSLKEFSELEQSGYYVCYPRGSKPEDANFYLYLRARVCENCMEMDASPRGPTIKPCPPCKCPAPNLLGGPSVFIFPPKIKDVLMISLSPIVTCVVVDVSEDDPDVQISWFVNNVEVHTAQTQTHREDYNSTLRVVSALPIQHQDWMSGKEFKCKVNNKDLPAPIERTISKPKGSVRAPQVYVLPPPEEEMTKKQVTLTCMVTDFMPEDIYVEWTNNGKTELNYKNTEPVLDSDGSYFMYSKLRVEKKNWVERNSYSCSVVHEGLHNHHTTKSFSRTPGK", "test": "SPR Biacore T200; method of Section 3.1, CD3D-CD3E-mFc as antigen"}, "[7]": {"target": "T2, HLA-A02 complex presenting … …"}, "[8]": {"target": "T2, HLA-A02 complex presenting … …", "remark": "listed apart in the source"}}, "note": "Where two headings read alike, the source gives them in different places."}
{"binder": "TCRm×CD3 bispecific antibody 2N1B5+IMCR (bispecific antibody) chain 1: QVQLVESGGGSVQAGGSLRLSCAASDDTYMTNCMGWFRQAPGKEREGVAAIYTGGGRAVYADSVRGRFTISQDNAKNTVYLQMNSLKPEDTAMYYCAADWLGPDMTDIQVLGALPWFNYWGQGTLVTVSSGGGGSGGGGSGGGGSQVQLVESGGGSVQAGGSLRLSCAASDDTYMTNCMGWFRQAPGKEREGVAAIYTGGGRAVYADSVRGRFTISQDNAKNTVYLQMNSLKPEDTAMYYCAADWLGPDMTDIQVLGALPWFNYWGQGTLVTVSSASERKSSVECPPCPAPEFEGGPSVFLFPPKPKDTLMISRTPEVTCVVVDVSQEDPEVQFNWYVDGVEVHNAKTKPREEQYNSTYRVVSVLTVLHQDWLNGKEYKCKVSNKALPASIEKTISKAKGQPREPQVCTLPPSQEEMTKNQVSLSCAVKGFYPSDIAVEWESNGQPENNYKTTPPVLDSDGSFFLVSKLTVDKSRWQEGNVFSCSVMHEALHNHYTQKSLSLSPGK chain 2: not shown", "values": [{"measurement": "EC50 of activation of Jurkat-Dual cells by targeting antigen peptide-pulsed T2 cells (QUANTI-Luc)", "setting": "[1]", "value": 2.41, "unit": "pM"}, {"measurement": "EC50 of activation of Jurkat-Dual cells by targeting HLA-A02+/HBsAg+ tumor cells HepG2-HBsAg (QUANTI-Luc)", "setting": "[2]", "value": 0.389, "unit": "nM"}, {"measurement": "EC50 of killing of antigen peptide-pulsed T2 cells by PBMCs (LDH release)", "setting": "[3]", "value": 0.278, "unit": "pM"}, {"measurement": "EC50 of killing of HepG2-HBsAg cells by PBMCs (LDH release)", "setting": "[4]", "value": 8.83, "unit": "pM"}, {"measurement": "Kd", "setting": "[5]", "value": 0.237, "unit": "nM"}, {"measurement": "koff", "setting": "[5]", "value": 0.000145, "unit": "s⁻¹"}, {"measurement": "kon", "setting": "[5]", "value": 613000, "unit": "M⁻¹ s⁻¹"}, {"measurement": "Kd", "setting": "[6]", "value": 2.96, "unit": "nM"}, {"measurement": "koff", "setting": "[6]", "value": 0.000175, "unit": "s⁻¹"}, {"measurement": "kon", "setting": "[6]", "value": 59200, "unit": "M⁻¹ s⁻¹"}]}
{"binder": "TCRm×CD3 bispecific antibody 2N1B5-h4+IMCR (bispecific antibody) chain 1: EVQLVESGGGLVQPGGSLRLSCAASDDTYMTNCMGWFRQAPGKERVGVAAIYTGGGRAVYADSVRGRFTISQDNAKNTVYLQMNSLKPEDTAMYYCAADWLGPDMTDIQVLGALPWFNYWGQGTLVTVSSGGGGSGGGGSGGGGSEVQLVESGGGLVQPGGSLRLSCAASDDTYMTNCMGWFRQAPGKERVGVAAIYTGGGRAVYADSVRGRFTISQDNAKNTVYLQMNSLKPEDTAMYYCAADWLGPDMTDIQVLGALPWFNYWGQGTLVTVSSASERKSSVECPPCPAPEFEGGPSVFLFPPKPKDTLMISRTPEVTCVVVDVSQEDPEVQFNWYVDGVEVHNAKTKPREEQYNSTYRVVSVLTVLHQDWLNGKEYKCKVSNKALPASIEKTISKAKGQPREPQVCTLPPSQEEMTKNQVSLSCAVKGFYPSDIAVEWESNGQPENNYKTTPPVLDSDGSFFLVSKLTVDKSRWQEGNVFSCSVMHEALHNHYTQKSLSLSPGK chain 2: not shown", "values": [{"measurement": "EC50 of killing of antigen peptide-pulsed T2 cells by PBMCs (LDH release)", "setting": "[3]", "value": 0.209, "unit": "pM"}, {"measurement": "EC50 of killing of HepG2-HBsAg cells by PBMCs (LDH release)", "setting": "[4]", "value": 9.52, "unit": "pM"}, {"measurement": "Kd", "setting": "[5]", "value": 0.531, "unit": "nM"}, {"measurement": "koff", "setting": "[5]", "value": 0.00014, "unit": "s⁻¹"}, {"measurement": "kon", "setting": "[5]", "value": 263000, "unit": "M⁻¹ s⁻¹"}, {"measurement": "Kd", "setting": "[6]", "value": 2.04, "unit": "nM"}, {"measurement": "koff", "setting": "[6]", "value": 0.000132, "unit": "s⁻¹"}, {"measurement": "kon", "setting": "[6]", "value": 64700, "unit": "M⁻¹ s⁻¹"}]}
{"binder": "N1B5-h4-Fc recombinant protein (humanized anti-HLA-A02/HBsAg complex TCRm antibody N1B5-h4) (Fc fusion) EVQLVESGGGLVQPGGSLRLSCAASDDTYMTNCMGWFRQAPGKERVGVAAIYTGGGRAVYADSVRGRFTISQDNAKNTVYLQMNSLKPEDTAMYYCAADWLGPDMTDIQVLGALPWFNYWGQGTLVTVSS", "values": [{"measurement": "Kd", "setting": "[7]", "value": 0.191, "unit": "nM"}, {"measurement": "koff", "setting": "[7]", "value": 0.000125, "unit": "s⁻¹"}, {"measurement": "kon", "setting": "[7]", "value": 656000, "unit": "M⁻¹ s⁻¹"}]}
{"binder": "N1B5-Fc recombinant protein (anti-HLA-A02/HBsAg complex TCRm antibody N1B5) (Fc fusion, not shown: a dimerising Fc or GST) QVQLVESGGGSVQAGGSLRLSCAASDDTYMTNCMGWFRQAPGKEREGVAAIYTGGGRAVYADSVRGRFTISQDNAKNTVYLQMNSLKPEDTAMYYCAADWLGPDMTDIQVLGALPWFNYWGQGTLVTVSS", "values": [{"measurement": "Kd", "setting": "[8]", "value": 0.14, "unit": "nM"}, {"measurement": "koff", "setting": "[8]", "value": "9.7e-05", "unit": "s⁻¹"}, {"measurement": "kon", "setting": "[8]", "value": 692000, "unit": "M⁻¹ s⁻¹"}]}
